Results on 2 molecules are retold here after publication PMC3437207, “G-quadruplex recognition activities of E. Coli MutS”.

Numbering of substitutions follows the chain as printed.

For data set [1], the target named is T1, MutS F36A (Escherichia coli, UniProt P23909 1-853, F36A).
T1 sequence: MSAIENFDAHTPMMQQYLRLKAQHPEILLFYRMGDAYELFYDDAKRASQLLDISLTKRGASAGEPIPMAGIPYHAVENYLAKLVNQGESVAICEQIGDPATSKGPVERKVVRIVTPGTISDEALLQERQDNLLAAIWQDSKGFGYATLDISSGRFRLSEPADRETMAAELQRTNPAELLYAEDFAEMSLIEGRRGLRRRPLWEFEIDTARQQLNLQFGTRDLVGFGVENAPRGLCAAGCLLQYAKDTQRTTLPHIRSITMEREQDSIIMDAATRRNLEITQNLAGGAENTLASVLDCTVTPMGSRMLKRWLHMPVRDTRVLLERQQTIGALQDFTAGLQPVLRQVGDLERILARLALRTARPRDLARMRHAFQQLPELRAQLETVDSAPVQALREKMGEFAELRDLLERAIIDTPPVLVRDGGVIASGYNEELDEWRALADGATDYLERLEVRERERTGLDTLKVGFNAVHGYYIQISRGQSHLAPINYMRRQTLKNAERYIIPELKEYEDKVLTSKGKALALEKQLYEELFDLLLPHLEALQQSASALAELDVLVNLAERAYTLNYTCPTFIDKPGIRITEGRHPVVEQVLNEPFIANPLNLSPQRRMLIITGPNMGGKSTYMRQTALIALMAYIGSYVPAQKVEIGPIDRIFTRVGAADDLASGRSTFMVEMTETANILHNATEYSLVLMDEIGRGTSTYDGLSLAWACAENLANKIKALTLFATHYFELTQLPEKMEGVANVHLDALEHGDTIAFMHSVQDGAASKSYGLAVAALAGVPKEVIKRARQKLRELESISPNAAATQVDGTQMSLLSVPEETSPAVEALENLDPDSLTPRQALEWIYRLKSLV
The experiment in a line: EMSA; 38-150 nM protein; 20 mM Tris pH 7.6, 5 mM MgCl2, 1 mM DTT, 50 ug/ml BSA, 10 mM KCl, 200 fmol homoduplex competitor, 10-20 fmol labeled DNA in 20 ul; 6% native PAGE 0.5X TBE with. The note with it: protein: recombinant; tags: His; chain copies: 2; label: 32P; blunt. In general terms: Mobility shift assays separate free from complexed probe on a gel.

Data set [2] deals with T1, MutS F36A. The experiment in a line: EMSA; 19-150 nM protein; no nucleotide; 5 mM Mg2+; 20 mM Tris pH 7.6, 5 mM MgCl2, 1 mM DTT, 50 ug/ml BSA, 10 mM KCl, 200 fmol homoduplex competitor, 10-20 fmol labeled DNA in 20 ul; 6% native PAGE 0.5X TBE with. The conditions noted are these: protein: recombinant; tags: His; chain copies: 2; label: 5' 32P; blunt; single G-T mismatch at position 14 of strand 1.

B1: Homoduplex (dsDNA)
DNA 1: CTAGCAAGCTTTCAATTCTAGAAATTCGGC
DNA 2: GCCGAATTTCTAGAATTGAAAGCTTGCTAG
Take B1: the binding result in the data set with MutS F36A [1] is “no binding”.

B2: G-T mismatch heteroduplex (dsDNA)
DNA 1: B1 DNA 1 with A14G
DNA 2: B1 DNA 2
In the case of B2, in the data set with MutS F36A [2], the binding result is listed as “no binding”.
